Experiments:
[1] = biological target: T1, monovalent hVISTA-ECD (amino acids 32-193 of SEQ ID NO: 1 with a 7xHis tail) (human, UniProt Q9H7M9 33-193); experiment: SPR 37C, Ab on Protein A, hVISTA-ECD 100-0.78 nM, pH 6.9
T1 construct: analyte of the SPR assays; also called huVISTA-His; human VISTA-ECD
Protocol: (§1) Human VISTA binding kinetics of P1-061029 (“ ‘029”), P1-068761 (“ ‘761”) and P1-068767 (“ ‘767”) (as IgG1.3 antibodies) were measured at pH values between pH 7.4 and pH 6.0, i.e., at pH 6.9 and pH 6.45 using a Biacore® T100 instrument (GE Healthcare). […] Antibodies were diluted to 25 nM in PBST pH 7.4, and were captured across active biosensor flow cells at 5 ul/min for 45 seconds. A concentration series of 100 - 0.78 nM monovalent hVISTA-ECD (SEQ ID NO: 325) was prepared pH 7.4, 6.9, 6.45 and 6.0 running buffers, and was injected over the captured antibodies at 40 ul/min to measure association and dissociation. Two 15 second injections of 10 mM glycine pH 1.5 were used to regenerate the Protein A capture surface between assay cycles. Rate constants ka (kₒₙ) and kd (koff) were derived from reference flow cell and 0 nM blank-subtracted sensorgrams, and were fit to a 1:1 binding model in Biacore® T200 Evaluation Software v.2.0. The affinity constant, KD was calculated as the ratio of rate constants koff/kₒₙ for each VISTA antibody. Ratios of koff and KD at each pH relative to pH 6.0 were calculated to evaluate how the VISTA koff and KD change as the buffer pH shifts to physiological, and are shown in Table 7. […] As the buffer pH shifts from acidic to physiological, VISTA koff and KD both weaken for ‘761 and ‘767. Physiological pH data for ‘761 and ‘767 for comparison is referenced from Table 7 and noted with an asterisk (*).

[2] = biological target: T1, monovalent hVISTA-ECD (amino acids …); experiment: SPR 37C, Ab on Protein A, hVISTA-ECD 50-5 nM, pH 7.4, average
Protocol: Binding of several preparations of each of the ‘029 progeny clones and of the parent ‘029 antibodies, formatted as IgG1.3 antibodies, to human VISTA at pH 6.0 and 7.4 was measured by Surface plasmon resonance (SPR). SPR analysis was performed to measure koff and KD binding affinity measurements for VISTA Abs at acidic and neutral pHs using a Biacore® T100 instrument (GE Healthcare). […] Antibodies were diluted to 25 nM in PBST pH 7.4, and were captured across active biosensor flow cells at 5 ul/min for 60 seconds. A concentration series of 50 - 5 nM monovalent hVISTA-ECD (SEQ ID NO: 325) was prepared in pH 7.4 and 6.0 running buffers, and was injected over the captured antibodies at 40 ul/min to measure association and dissociation. Two 15 second injections of 10 mM glycine pH 1.5 were used to regenerate the Protein A capture surface between assay cycles. Rate constants ka (kₒₙ) and kd (koff) were derived from reference flow cell and 0 nM blank-subtracted sensorgrams, and were fit to a 1:1 binding model in Biacore® T200 Evaluation Software v.2.0. The affinity constant, KD was calculated as the ratio of rate constants koff/kₒₙ for each VISTA antibody.

[3] = biological target: T1, monovalent hVISTA-ECD (amino acids …); experiment: SPR 37C, Ab on Protein A, hVISTA-ECD 1600-0.78 nM, pH 7.4
Protocol: (§2) For this assay, ‘029, ‘761 and ‘767were reformatted as hIgG1f isotype and were expressed as both standard hIgG1f and in hIgG1f afucosylated formats to compare against the hIgG1.3f Fc. An SPR kinetics assay was conducted to measure koff and KD binding affinity measurements for VISTA Abs at acidic and physiological pH using a Biacore® T100 instrument (GE Healthcare). […] Antibodies were diluted to 25 nM in PBST pH 7.4, and were captured across active biosensor flow cells at 5 ul/min for 45 seconds. A concentration series of 1600 - 0.78 nM (pH 7.4) and 100 - 0.78 nM (pH 6.0) monovalent hVISTA-ECD (SEQ ID NO: 325) was prepared running buffer, and was injected over the captured antibodies at 40 ul/min to measure association and dissociation. Two 15 second injections of 10 mM glycine pH 1.5 were used to regenerate the Protein A capture surface between assay cycles. Rate constants ka (kₒₙ) and kd (koff) were derived from reference flow cell and 0 nM blank-subtracted sensorgrams, and were fit to a 1:1 binding model in Biacore® T200 Evaluation Software v.2.0. The affinity constant, KD was calculated as the ratio of rate constants koff/kₒₙ for each VISTA antibody. Ratios of koff and KD at pH 7.4 / pH 6.0 were calculated to compare off-rate and affinity improvement at acidic pH relative to physiological pH.

[4] = biological target: T1, monovalent hVISTA-ECD (amino acids …); experiment: SPR 37C, pH 6.45 over pH 6.0
Protocol: as §1

[5] = biological target: T1, monovalent hVISTA-ECD (amino acids …); experiment: SPR 37C, pH 7.4 over pH 6.0
Protocol: Human VISTA binding kinetics of P1-061029 (“ ‘029”), P1-068761 (“ ‘761”) and P1-068767 (“ ‘767”) (as IgG1.3 antibodies) were measured at pH values between pH 7.4 and pH 6.0, i.e., at pH 6.9 and pH 6.45 using a Biacore® T100 instrument (GE Healthcare). […] Antibodies were diluted to 25 nM in PBST pH 7.4, and were captured across active biosensor flow cells at 5 ul/min for 45 seconds. A concentration series of 100 - 0.78 nM monovalent hVISTA-ECD (SEQ ID NO: 325) was prepared pH 7.4, 6.9, 6.45 and 6.0 running buffers, and was injected over the captured antibodies at 40 ul/min to measure association and dissociation. Two 15 second injections of 10 mM glycine pH 1.5 were used to regenerate the Protein A capture surface between assay cycles. Rate constants ka (kₒₙ) and kd (koff) were derived from reference flow cell and 0 nM blank-subtracted sensorgrams, and were fit to a 1:1 binding model in Biacore® T200 Evaluation Software v.2.0. The affinity constant, KD was calculated as the ratio of rate constants koff/kₒₙ for each VISTA antibody. Ratios of koff and KD at each pH relative to pH 6.0 were calculated to evaluate how the VISTA koff and KD change as the buffer pH shifts to physiological, and are shown in Table 7. […] As the buffer pH shifts from acidic to physiological, VISTA koff and KD both weaken for ‘761 and ‘767. […]

[6] = biological target: T1, monovalent hVISTA-ECD (amino acids …); experiment: SPR 37C, Ab on Protein A, hVISTA-ECD 100-0.78 nM, pH 6.0
Protocol: as §2

[7] = biological target: T1, monovalent hVISTA-ECD (amino acids …); experiment: SPR 37C, pH 7.4 *, value referenced from the 1600 nM assay (same as the 4th table r7)

T1 sequence (Q9H7M9 other isoform, or with tags, fused parts or gaps limits assumed): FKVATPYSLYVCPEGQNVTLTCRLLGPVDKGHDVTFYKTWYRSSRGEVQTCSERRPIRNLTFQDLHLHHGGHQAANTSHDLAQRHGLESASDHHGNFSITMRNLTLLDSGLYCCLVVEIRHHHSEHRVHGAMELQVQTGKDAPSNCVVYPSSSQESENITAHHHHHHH

Binder | Kd [1] [nM] | koff [1] [s⁻¹] | kon [1] [M⁻¹ s⁻¹] | Kd [2] [nM] | koff [2] [s⁻¹] | kon [2] [M⁻¹ s⁻¹] | Kd [3] [nM] | koff [3] [s⁻¹] | kon [3] [M⁻¹ s⁻¹] | KD ratio to pH 6.0 [4] | koff ratio to pH 6.0 [4] | KD ratio to pH 6.0 [5] | koff ratio to pH 6.0 [5] | Kd [6] [nM] | koff [6] [s⁻¹] | kon [6] [M⁻¹ s⁻¹] | Kd [7] [nM] | koff [7] [s⁻¹] | kon [7] [M⁻¹ s⁻¹]
P1-061029.IgG1.3 (antibody, IgG1.3; also called P1-061029 (parent); P1-061029-18) heavy: EVQLVESGGGLVQPGKSLRLSCAASGFTLDDYAMHWVRQAPGKGLEWVSGINWNSANIGYADSVKGRFTISRDNAKNSLYLQMNSLRTEDTALYYCAKVPGYSGGWIDAFDVWGQGTMVTVSSASTKGPSVFPLAPSSKSTSGGTAALGCLVKDYFPEPVTVSWNSGALTSGVHTFPAVLQSSGLYSLSSVVTVPSSSLGTQTYICNVNHKPSNTKVDKRVEPKSCDKTHTCPPCPAPEAEGAPSVFLFPPKPKDTLMISRTPEVTCVVVDVSHEDPEVKFNWYVDGVEVHNAKTKPREEQYNSTYRVVSVLTVLHQDWLNGKEYKCKVSNKALPAPIEKTISKAKGQPREPQVYTLPPSREEMTKNQVSLTCLVKGFYPSDIAVEWESNGQPENNYKTTPPVLDSDGSFFLYSKLTVDKSRWQQGNVFSCSVMHEALHNHYTQKSLSLSPG light: not shown | 14 | 0.0057 | 410000 | 19 | 0.0056 | 290000 | 42 | 0.0068 | 160000 | 2.7 | 0.7 | 13.2 | 1.1 | 7.2 | 0.0079 | 1.1e+06 |  |  | 
P1-068761.IgG1.3 (antibody, IgG1.3; also called P1-068761-20; P1-068761 hIgG1.3f) heavy: EVQLVESGGGLVQPGKSLRLSCAASGFTLEDEAMHWVRQAPGKGLEWVSGINWNSEEIGYADSVKGRFTISRDNAKNSLYLQMNSLRTEDTALYYCAKVPGYSHGWIDAEDVWGQGTMVTVSSASTKGPSVFPLAPSSKSTSGGTAALGCLVKDYFPEPVTVSWNSGALTSGVHTFPAVLQSSGLYSLSSVVTVPSSSLGTQTYICNVNHKPSNTKVDKRVEPKSCDKTHTCPPCPAPEAEGAPSVFLFPPKPKDTLMISRTPEVTCVVVDVSHEDPEVKFNWYVDGVEVHNAKTKPREEQYNSTYRVVSVLTVLHQDWLNGKEYKCKVSNKALPAPIEKTISKAKGQPREPQVYTLPPSREEMTKNQVSLTCLVKGFYPSDIAVEWESNGQPENNYKTTPPVLDSDGSFFLYSKLTVDKSRWQQGNVFSCSVMHEALHNHYTQKSLSLSPG light: not shown | 190 | 0.0089 | 48000 |  |  |  | 11000 | 0.042 | 3800 | 18.4 | 3.2 |  |  | 4.3 | 0.0016 | 370000 | 11000 | 0.042 | 3800

— US20230192860A1 (Bristol-Myers Squibb, published 2023)
